Data from patent US20250099635A1, “IIMMUNOCONJUGATES COMPRISING KALLIKREIN RELATED PEPTIDASE 2 ANTIGEN BINDING DOMAINS AND THEIR USES” (Janssen Biotech, Inc., priority 2022, published 2025).
Blank lines part the entries; values can stand above or below the binder they belong to.

Molecular target: soluble human kallikrein related peptidase 2 (hK2) protein (human) (UniProt P20151)
Experiment: SPR; antibody captured by anti-Fc antibody, soluble hK2 injected; 1:1 Langmuir fit

soluble human kallikrein related peptidase 2 (hK2) protein (human), sequence (P20151 19-261): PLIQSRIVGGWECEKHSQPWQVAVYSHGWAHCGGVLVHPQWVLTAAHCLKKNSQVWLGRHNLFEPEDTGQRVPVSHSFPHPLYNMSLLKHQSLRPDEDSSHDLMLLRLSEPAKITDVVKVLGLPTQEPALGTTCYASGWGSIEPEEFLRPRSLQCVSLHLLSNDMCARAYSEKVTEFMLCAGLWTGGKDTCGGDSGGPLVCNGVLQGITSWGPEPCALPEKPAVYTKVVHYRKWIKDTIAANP

Kd: 34.3 nM
B1: KL2B413 (scFv-LH-Fc) (Fc fusion, part only; not given: Fc part, part only)
scFv, part: EIVLTQSPSFLSASVGDRVTITCRASQGISSYLSWYQQKPGKAPKLLIYATSTLQSGVPSRFSGSGSGTEFTLTISSLQPEDFATYYCQQLNSYPRTFGQGTKVEIKGGSEGKSSGSGSESKSTGGSEVQLVESGGGLVQPGGSLRLSCAASGFTFSSYWMTWVRQAPGKGLEWVANIKQDGSERYYVDSVKGRFTISRDNAKNSLYLQMNSLRAEDTAVYYCARDQNYDILTGHYGMDVWGQGTTVTVSS

Kd: 0.7 to 1 nM
B2: KL2B359 (scFv-LH-Fc) (Fc fusion, part only; not given: Fc part, part only)
scFv, part: EIVLTQSPATLSLSPGERATLSCRASESVEYFGTSLMHWYQQKPGQPPRLLIYAASNVESGIPARFSGSGSGTDFTLTISSVEPEDFAVYFCQQTRKVPYTFGGGTKVEIKGGSEGKSSGSGSESKSTGGSQVQLQESGPGLVKPSQTLSLTCTVSGNSITSDYAWNWIRQFPGKRLEWIGYISYSGSTTYNPSLKSRVTISRDTSKNQFSLKLSSVTAADTAVYYCATGYYYGSGFWGQGTLVTVSS
